Measurements taken from US20250388676A1.
Values belong to the binder of their own block, whether it stands above or below them.

How the values were obtained:
[1] = biological target: cynomolgus GITR (cynomolgus monkey); test: flow cytometry on NFkB-NlucP/HEK293 cells expressing cyno GITR, detection with anti-human IgG Fc F(ab')2 [panel B]
activated cyno T cells = test: flow cytometry on activated primary cynomolgus T cells, detection with anti-human IgG Fc F(ab')2 [panel B]
activated human T cells = test: flow cytometry on activated primary human T cells, detection with anti-human IgG Fc F(ab')2 [panel A]
[2] = biological target: human OX40 on Jurkat NF-kB-Luc2 OX40 reporter cells (human) (UniProt P43489); test: cell-based or functional assay
Chain of human OX40 on Jurkat NF-kB-Luc2 OX40 reporter cells (human) (P43489 29-277): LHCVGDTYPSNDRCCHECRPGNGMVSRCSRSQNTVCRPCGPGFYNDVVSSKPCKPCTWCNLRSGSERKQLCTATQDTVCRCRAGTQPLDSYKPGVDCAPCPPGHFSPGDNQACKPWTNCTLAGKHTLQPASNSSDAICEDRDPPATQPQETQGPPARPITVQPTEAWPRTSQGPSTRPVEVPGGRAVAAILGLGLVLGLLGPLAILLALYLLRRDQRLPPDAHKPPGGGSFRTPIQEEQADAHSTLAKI

[3] = biological target: OX40 (analyte in solution) (UniProt P43489); test: SPR (Biacore), construct captured on CM5 chip via anti-human Fc or Fab, antigen as analyte, 25 C
Chain of OX40 (analyte in solution) (P43489 29-214 limits assumed): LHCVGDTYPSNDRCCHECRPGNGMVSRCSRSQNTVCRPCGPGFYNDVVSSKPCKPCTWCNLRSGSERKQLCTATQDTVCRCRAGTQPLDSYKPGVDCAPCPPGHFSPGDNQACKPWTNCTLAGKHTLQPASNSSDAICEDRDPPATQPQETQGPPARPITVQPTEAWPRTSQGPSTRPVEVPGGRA

[4] = biological target: human LTBR on Jurkat NF-kB reporter cells (human) (UniProt P36941); test: cell-based or functional assay
Chain of human LTBR on Jurkat NF-kB reporter cells (human) (P36941 31-435): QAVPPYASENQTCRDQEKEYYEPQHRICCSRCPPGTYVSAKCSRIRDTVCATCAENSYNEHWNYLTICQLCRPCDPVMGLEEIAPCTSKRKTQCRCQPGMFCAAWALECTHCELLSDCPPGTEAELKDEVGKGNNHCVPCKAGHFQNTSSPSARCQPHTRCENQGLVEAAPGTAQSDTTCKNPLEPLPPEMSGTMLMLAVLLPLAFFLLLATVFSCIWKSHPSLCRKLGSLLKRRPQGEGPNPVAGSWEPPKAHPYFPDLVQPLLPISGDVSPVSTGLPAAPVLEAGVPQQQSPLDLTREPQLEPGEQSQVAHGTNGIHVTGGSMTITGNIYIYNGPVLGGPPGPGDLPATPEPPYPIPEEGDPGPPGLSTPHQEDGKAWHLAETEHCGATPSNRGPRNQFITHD

[5] = biological target: human HVEM on Jurkat NF-kB reporter cells (human) (UniProt Q92956); test: cell-based or functional assay
Chain of human HVEM on Jurkat NF-kB reporter cells (human) (Q92956 39-283): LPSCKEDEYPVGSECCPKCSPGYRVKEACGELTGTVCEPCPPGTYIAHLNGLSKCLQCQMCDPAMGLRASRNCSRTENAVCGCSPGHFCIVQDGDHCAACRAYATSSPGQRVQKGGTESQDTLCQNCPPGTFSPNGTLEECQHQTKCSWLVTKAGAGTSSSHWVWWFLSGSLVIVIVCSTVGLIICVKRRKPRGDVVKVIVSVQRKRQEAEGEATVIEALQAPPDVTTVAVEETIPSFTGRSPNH

[6] = biological target: HVEM (analyte in solution) (UniProt Q92956); test: SPR (Biacore), construct captured on CM5 chip via anti-human Fc or Fab, antigen as analyte, 25 C
Chain of HVEM (analyte in solution) (Q92956 39-202 limits assumed): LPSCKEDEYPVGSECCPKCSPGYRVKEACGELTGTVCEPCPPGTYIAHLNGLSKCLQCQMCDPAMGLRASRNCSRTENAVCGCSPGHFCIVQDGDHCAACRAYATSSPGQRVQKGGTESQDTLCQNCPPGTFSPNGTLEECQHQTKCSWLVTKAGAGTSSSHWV

[7] = biological target: human CD27 on reporter cells (human) (UniProt P26842); test: cell-based or functional assay
Chain of human CD27 on reporter cells (human) (P26842 20-260): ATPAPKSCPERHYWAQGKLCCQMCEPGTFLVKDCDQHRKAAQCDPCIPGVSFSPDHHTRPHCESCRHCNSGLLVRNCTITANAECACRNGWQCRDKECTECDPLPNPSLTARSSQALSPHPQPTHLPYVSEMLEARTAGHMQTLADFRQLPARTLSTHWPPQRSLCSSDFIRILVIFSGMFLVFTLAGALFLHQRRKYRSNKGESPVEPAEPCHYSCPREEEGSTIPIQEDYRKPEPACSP

[8] = biological target: CD27 (analyte in solution) (UniProt P26842); test: SPR (Biacore), construct captured on CM5 chip via anti-human Fc or Fab, antigen as analyte, 25 C
Chain of CD27 (analyte in solution) (P26842 20-191 limits assumed): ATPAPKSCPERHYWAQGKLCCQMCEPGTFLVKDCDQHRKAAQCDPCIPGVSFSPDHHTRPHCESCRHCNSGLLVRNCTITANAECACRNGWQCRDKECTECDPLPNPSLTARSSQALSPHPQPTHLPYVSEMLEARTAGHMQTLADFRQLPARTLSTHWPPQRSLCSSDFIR

EC50 (read off the curve) [1]: 0.02 nM
B1: GITRL/irrelevant control (antibody, part only; not given: irrelevant anti-TNP binding site, not shown: another chain or arm of the molecule; small tags and cut ends)
chain: QLETAKEPCMAKFGPLPSKWQMASSEPPCVNKVSDWKLEILQNGLYLIYGQVAPNANYNDVAPFEVRLYKNKDMIQTLTNKSKIQNVGGTYELHVGDTIDLIFNSEHQVLKNNTYWGIILLANPQFISGGGGSGGGGSQLETAKEPCMAKFGPLPSKWQMASSEPPCVNKVSDWKLEILQNGLYLIYGQVAPNANYNDVAPFEVRLYKNKDMIQTLTNKSKIQNVGGTYELHVGDTIDLIFNSEHQVLKNNTYWGIILLANPQFISGGGGSGGGGSQLETAKEPCMAKFGPLPSKWQMASSEPPCVNKVSDWKLEILQNGLYLIYGQVAPNANYNDVAPFEVRLYKNKDMIQTLTNKSKIQNVGGTYELHVGDTIDLIFNSEHQVLKNNTYWGIILLANPQFIS

EC50 (read off the curve) (activated cyno T cells): 0.6 nM
EC50 (read off the curve) (activated human T cells): 0.4 nM
B2: GITRLmut/anti-PD-1 mAb1 (antibody, part only; not given: mutant GITRL, constant regions, linkers, not shown: a dimerising Fc or GST)
heavy, part: QLQLQESGPGLVKPSETLSLTCTVSGGSISTSSYFWGWIRQPPGKGLEWIGSIYRSGSTYYNPSLKSRVTISVDTSKNQFSLKLSSVTAADTAVYYCARGITGDPGDYWGQGTLVTVSS
light, part: EIVLTQSPATLSLSPGERATLSCGASQSVSINFLAWYQQKPGLAPRLLIYEASSRATGIPDRFSGSGSGTDFTLTISRLEPEDFAVYYCQQYGSSPYTFGQGTKLEIK

EC50 (read off the curve) (activated cyno T cells): 0.2 nM
EC50 (read off the curve) (activated human T cells): 0.1 nM
B3: GITRLmut/anti-PD-1 mAb2 (antibody, part only; not given: mutant GITRL, constant regions, linkers, not shown: a dimerising Fc or GST)
heavy, part: QLQLQESGPGLVKPSETLSLTCTVSGGSISSSSYFWGWIRQPPGKGLEWIGSIYRSGSTYYNPSLKSRVTISVDTSKNQFSLKLSSVTAADTAVYYCARGITGDPGDYWGQGTLVTVSS
light, part: EIVLTQSPATLSLSPGERATLSCGASQSVPINFLAWYQQKPGLAPRLLIYEASSRHTGIPDRFSGSGSGTDFTLTISRLEPEDFAVYYCGQYGSSPYTFGQGTKLEIK

OX40 reporter EC50 [2]: 0.74 nM
Average binding Relative (RU) [3]: 23.7 RU
B4: OX40L monospecific (protein, part only; not given: carrier Fab or Fc and linkers, not shown: another chain or arm of the molecule; a dimerising Fc or GST; large carriers; small tags and cut ends)
chain: QVSHRYPRIQSIKVQFTEYKKEKGFILTSQKEDEIMKVQDNSVIINCDGFYLISLKGYFSQEVDISLHYQKDEEPLFQLKKVRSVNSLMVASLTYKDKVYLNVTTDNTSLDDFHVNGGELILIHQNPGEFCVLGGGGSGGGGSQVSHRYPRIQSIKVQFTEYKKEKGFILTSQKEDEIMKVQDNSVIINCDGFYLISLKGYFSQEVDISLHYQKDEEPLFQLKKVRSVNSLMVASLTYKDKVYLNVTTDNTSLDDFHVNGGELILIHQNPGEFCVLGGGGSGGGGSQVSHRYPRIQSIKVQFTEYKKEKGFILTSQKEDEIMKVQDNSVIINCDGFYLISLKGYFSQEVDISLHYQKDEEPLFQLKKVRSVNSLMVASLTYKDKVYLNVTTDNTSLDDFHVNGGELILIHQNPGEFCVL

LTBR reporter EC50 [4]: 0.0057 nM
HVEM reporter EC50 [5]: 0.05 nM
Average binding Relative (RU) [6]: 1.69 RU
B5: LIGHT monospecific (protein, part only; not given: carrier Fab or Fc and linkers, not shown: another chain or arm of the molecule; a dimerising Fc or GST; large carriers; small tags and cut ends)
chain: LIQERRSHEVNPAAHLTGANSSLTGSGGPLLWETQLGLAFLRGLSYHDGALVVTKAGYYYIYSKVQLGGVGCPLGLASTITHGLYKRTPRYPEELELLVSQQSPCGRATSSSRVWWDSSFLGGVVHLEAGEKVVVRVLDERLVRLRDGTRSYFGAFMVGGGGSGGGGSLIQERRSHEVNPAAHLTGANSSLTGSGGPLLWETQLGLAFLRGLSYHDGALVVTKAGYYYIYSKVQLGGVGCPLGLASTITHGLYKRTPRYPEELELLVSQQSPCGRATSSSRVWWDSSFLGGVVHLEAGEKVVVRVLDERLVRLRDGTRSYFGAFMVGGGGSGGGGSLIQERRSHEVNPAAHLTGANSSLTGSGGPLLWETQLGLAFLRGLSYHDGALVVTKAGYYYIYSKVQLGGVGCPLGLASTITHGLYKRTPRYPEELELLVSQQSPCGRATSSSRVWWDSSFLGGVVHLEAGEKVVVRVLDERLVRLRDGTRSYFGAFMV

CD27 reporter EC50 [7]: 1.9 nM
Average binding Relative (RU) [8]: 32.7 RU
B6: CD70 monospecific (protein, part only; not given: carrier Fab or Fc and linkers, not shown: another chain or arm of the molecule; a dimerising Fc or GST; large carriers; small tags and cut ends)
chain: GWDVAELQLNHTGPQQDPRLYWQGGPALGRSFLHGPELDKGQLRIHRDGIYMVHIQVTLAICSSTTASRHHPTTLAVGICSPASRSISLLRLSFHQGCTIASQRLTPLARGDTLCTNLTGTLLPSRNTDETFFGVQWVRPGGGGSGGGGSGWDVAELQLNHTGPQQDPRLYWQGGPALGRSFLHGPELDKGQLRIHRDGIYMVHIQVTLAICSSTTASRHHPTTLAVGICSPASRSISLLRLSFHQGCTIASQRLTPLARGDTLCTNLTGTLLPSRNTDETFFGVQWVRPGGGGSGGGGSGWDVAELQLNHTGPQQDPRLYWQGGPALGRSFLHGPELDKGQLRIHRDGIYMVHIQVTLAICSSTTASRHHPTTLAVGICSPASRSISLLRLSFHQGCTIASQRLTPLARGDTLCTNLTGTLLPSRNTDETFFGVQWVRP
